Results taken from patent US20260028403A1 (Zymeworks, published 2026).

Legend:
[1] = target: T1, CD28 on primary human T cells (human, UniProt P10747 19-220); assay: cell-based or functional assay
[2] = target: T1, CD28 on primary human T cells; assay: cell-based or functional assay; remark: listed apart in the source
[3] = target: T2, Recombinant human/cynomolgus/rhesus macaque CD28 mouse IgG2a Fc fusion protein (Acro Biosystems) (human/cynomolgus/rhesus macaque, UniProt P10747 19-152); assay: SPR, in-format anti-CD28 variants, huCD28
T2 construct: bought; also called huCD28

[4] = target: T2, Recombinant human/cynomolgus/rhesus …; assay: SPR Biacore T200, CD28-mIgG2a Fc on CM5, construct injected, 1:1 model;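 note: fc fusion captured by amine coupling, run at 25 °C in HEPES buffer pH 7.4, association 140-500 s then dissociation 600-1200 s, values averaged over three independent runs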
[5] = target: T3, Recombinant human CD3 epsilon/delta heterodimer, his tag protein (Acro Biosystems) (human, UniProt P07766 23-126; P04234 22-105); assay: SPR Biacore T200, CD3 e/d-his on CM5, construct injected, 1:1 model;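 note: measured at 25 °C in HEPES-buffered saline with EDTA and Tween 20 at pH 7.4, values are means of three independent runs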
T3 construct: bought

[6] = target: T4, Recombinant MSLN his tag protein (R&D systems) (UniProt Q13421 296-580, limits assumed); assay: SPR Biacore T200, MSLN-his on CM5, construct flowed, 1:1 model
T4 construct: his tag; also called mesothelin

Row | Binder | IL-2 maximum cytokine, T cells alone [1] [pg/mL] | IL-2 maximum cytokine, T cells with SNU 601 cells [1] [pg/mL] | TNFa maximum cytokine, T cells alone [1] [pg/mL] | TNFa maximum cytokine, T cells with SNU 601 cells [1] [pg/mL] | IC50, T cell-dependent cytotoxicity on SNU 601 [2] [pM] | Maximum Killing (%), SNU 601 [2] [%] | Fold-change from WT [3] [fold] | Kd [3] [nM] | koff [3] [s⁻¹] | kon [3] [M⁻¹ s⁻¹] | Kd [4] [nM] | koff [4] [s⁻¹] | kon [4] [M⁻¹ s⁻¹] | Kd [5] [nM] | koff [5] [s⁻¹] | kon [5] [M⁻¹ s⁻¹] | Kd [6] [nM] | koff [6] [s⁻¹] | kon [6] [M⁻¹ s⁻¹]
1 | v37693 (trispecific antibody, human IgG1, kappa, L234A L235A, also called v37638 format, CD28 VH Y1037A) heavy 1: not shown heavy 2: QVQLVESGGGLVQPGGSLRLSCSVSGIDLSSNPMIWVRQAPGKGLQYIGIIDTDGSTYYADWAKGRFTISKDSTTVYLQINSPRAEDTAVYYCARRLHGSSNGYYDDLWGQGTLVTVSSGGGGSGGGGSGGGGSGGGGSDGQMTQSPSSVSASVGDRVTITCQASQSIYSYLSWYQQKPGQRPKLLIYKASTLASGVPSRFSGSGSGTDFTLTISSVQPEDFATYYCQQGYTVTNVDKNTFGGGTKVEIKAAEPKSSDKTHTCPPCPAPEAAGGPSVFLFPPKPKDTLMISRTPEVTCVVVSVSHEDPEVKFNWYVDGVEVHNAKTKPREEQYNSTYRVVSVLTVLHQDWLNGKEYKCKVSNKALPAPIEKTISKAKGQPREPQVYVLPPSRDELTKNQVSLLCLVKGFYPSDIAVEWESNGQPENNYLTWPPVLDSDGSFFLYSKLTVDKSRWQQGNVFSCSVMHEALHNHYTQKSLSLSPG light: DIQMTQSPSSLSASVGDRVTITCRASESVEYYVTSLMQWYQQKPGKAPKLLIYAASNVDSGVPSRFSGSGSGTDFTLTISSLQPEDIATYYCQQSRKVPFTFGGGTKVEIKRTVAAPSVFIFPPSDEQLKSGTASVVCLLNNFYPREAKVQWKVDNALQSGNSQESVTEQDSKDSTYSLSSTLTLSKADYEKHKVYACEVTHQGLSSPVTKSFNRGEC | 104 | 3600 | 19.7 | 453 | 0.13 | 95.3 | 4.1 | 91.8 | 0.00968 | 106000 | – | – | – | – | – | – | – | – | –
2 | v34913 (trispecific antibody, human IgG1, kappa, L234A L235A, CD3 scFv on N-terminus of CD28 Fab; MSLN scFv-Fc; Het Fc, FcKO; also called CD3xCD28xMSLN trispecific) heavy 1: not shown heavy 2: EIVLTQSPATLSLSPGERVTMSCSASSSVSYMHWYQQKPGQAPRLWIYDTSKLASGVPARFSGSGSGTDYTLTISSVEPEDNAVYYCQQWSGHPLTFGQGTKVEIKGGGGSGGGGSGGGGSGGGGSQVQLVQSGAEVKKPGASVKISCKASGYSFTGYTMNWVRQAPGQGLEWIGLITPYSGASSYAQKFQGRATLTVDKSTSTAYMELSSLRSEDTAVYYCARGGYDGRGFDYWGQGTNVTVSSAAEPKSSDKTHTCPPCPAPEAAGGPSVFLFPPKPKDTLMISRTPEVTCVVVSVSHEDPEVKFNWYVDGVEVHNAKTKPREEQYNSTYRVVSVLTVLHQDWLNGKEYKCKVSNKALPAPIEKTISKAKGQPREPQVYVLPPSRDELTKNQVSLLCLVKGFYPSDIAVEWESNGQPENNYLTWPPVLDSDGSFFLYSKLTVDKSRWQQGNVFSCSVMHEALHNHYTQKSLSLSPG light: DIQMTQSPSSLSASVGDRVTITCRASESVEYYVTSLMQWYQQKPGKAPKLLIYAASNVDSGVPSRFSGSGSGTDFTLTISSLQPEDIATYYCQQSRKVPFTFGGGTKVEIKRTVAAPSVFIFPPSDEQLKSGTASVVCLLNNFYPREAKVQWKVDNALQSGNSQESVTEQDSKDSTYSLSSTLTLSKADYEKHKVYACEVTHQGLSSPVTKSFNRGEC | – | – | – | – | – | – | – | – | – | – | 45.8 | 0.00216 | 47400 | 41.6 | 0.0112 | 270000 | 6.49 | 0.00212 | 340000
3 | v34927 (bispecific antibody, human IgG1, kappa, L234A L235A, MSLN VL-VH scFv); also called anti-(MSLNxCD28) bispecific control) heavy 1: not shown heavy 2: EIVLTQSPATLSLSPGERVTMSCSASSSVSYMHWYQQKPGQAPRLWIYDTSKLASGVPARFSGSGSGTDYTLTISSVEPEDNAVYYCQQWSGHPLTFGQGTKVEIKGGGGSGGGGSGGGGSGGGGSQVQLVQSGAEVKKPGASVKISCKASGYSFTGYTMNWVRQAPGQGLEWIGLITPYSGASSYAQKFQGRATLTVDKSTSTAYMELSSLRSEDTAVYYCARGGYDGRGFDYWGQGTNVTVSSAAEPKSSDKTHTCPPCPAPEAAGGPSVFLFPPKPKDTLMISRTPEVTCVVVSVSHEDPEVKFNWYVDGVEVHNAKTKPREEQYNSTYRVVSVLTVLHQDWLNGKEYKCKVSNKALPAPIEKTISKAKGQPREPQVYVLPPSRDELTKNQVSLLCLVKGFYPSDIAVEWESNGQPENNYLTWPPVLDSDGSFFLYSKLTVDKSRWQQGNVFSCSVMHEALHNHYTQKSLSLSPG light: DIQMTQSPSSLSASVGDRVTITCRASESVEYYVTSLMQWYQQKPGKAPKLLIYAASNVDSGVPSRFSGSGSGTDFTLTISSLQPEDIATYYCQQSRKVPFTFGGGTKVEIKRTVAAPSVFIFPPSDEQLKSGTASVVCLLNNFYPREAKVQWKVDNALQSGNSQESVTEQDSKDSTYSLSSTLTLSKADYEKHKVYACEVTHQGLSSPVTKSFNRGEC | – | – | – | – | – | – | – | – | – | – | 50.7 | 0.00258 | 50900 | – | – | – | 6.86 | 0.00187 | 270000
4 | v37695 (trispecific antibody, human IgG1, kappa, L234A L235A, also called v37638 format, CD28 VL N1066A) heavy 1: not shown heavy 2: QVQLVESGGGLVQPGGSLRLSCSVSGIDLSSNPMIWVRQAPGKGLQYIGIIDTDGSTYYADWAKGRFTISKDSTTVYLQINSPRAEDTAVYYCARRLHGSSNGYYDDLWGQGTLVTVSSGGGGSGGGGSGGGGSGGGGSDGQMTQSPSSVSASVGDRVTITCQASQSIYSYLSWYQQKPGQRPKLLIYKASTLASGVPSRFSGSGSGTDFTLTISSVQPEDFATYYCQQGYTVTNVDKNTFGGGTKVEIKAAEPKSSDKTHTCPPCPAPEAAGGPSVFLFPPKPKDTLMISRTPEVTCVVVSVSHEDPEVKFNWYVDGVEVHNAKTKPREEQYNSTYRVVSVLTVLHQDWLNGKEYKCKVSNKALPAPIEKTISKAKGQPREPQVYVLPPSRDELTKNQVSLLCLVKGFYPSDIAVEWESNGQPENNYLTWPPVLDSDGSFFLYSKLTVDKSRWQQGNVFSCSVMHEALHNHYTQKSLSLSPG light: DIQMTQSPSSLSASVGDRVTITCRASESVEYYVTSLMQWYQQKPGKAPKLLIYAASAVDSGVPSRFSGSGSGTDFTLTISSLQPEDIATYYCQQSRKVPFTFGGGTKVEIKRTVAAPSVFIFPPSDEQLKSGTASVVCLLNNFYPREAKVQWKVDNALQSGNSQESVTEQDSKDSTYSLSSTLTLSKADYEKHKVYACEVTHQGLSSPVTKSFNRGEC | 28.9 | 3470 | 13 | 404 | 0.04 | 89.1 | 1.3 | 27.7 | 0.00266 | 95100 | – | – | – | – | – | – | – | – | –
5 | v34914 (trispecific antibody, human IgG1, lambda, L234A L235A, Het Fc, FcKO; also called CD28xCD3xMSLN trispecific) heavy 1: not shown heavy 2: EIVLTQSPATLSLSPGERVTMSCSASSSVSYMHWYQQKPGQAPRLWIYDTSKLASGVPARFSGSGSGTDYTLTISSVEPEDNAVYYCQQWSGHPLTFGQGTKVEIKGGGGSGGGGSGGGGSGGGGSQVQLVQSGAEVKKPGASVKISCKASGYSFTGYTMNWVRQAPGQGLEWIGLITPYSGASSYAQKFQGRATLTVDKSTSTAYMELSSLRSEDTAVYYCARGGYDGRGFDYWGQGTNVTVSSAAEPKSSDKTHTCPPCPAPEAAGGPSVFLFPPKPKDTLMISRTPEVTCVVVSVSHEDPEVKFNWYVDGVEVHNAKTKPREEQYNSTYRVVSVLTVLHQDWLNGKEYKCKVSNKALPAPIEKTISKAKGQPREPQVYVLPPSRDELTKNQVSLLCLVKGFYPSDIAVEWESNGQPENNYLTWPPVLDSDGSFFLYSKLTVDKSRWQQGNVFSCSVMHEALHNHYTQKSLSLSPG light: NFMLTQPHSVSESPGKTVTISCKRNTGNIGSNYVNWYQQHEGSSPTTIIYRNDKRPDGVSDRFSGSIDRSSKSASLTISNLKTEDEADYFCQSYSSGFIFGGGTKLTVLGQPKAAPSVTLFPPSSEELQANKATLVCLISDFYPGAVTVAWKADSSPVKAGVETTTPSKQSNNKYAASSYLSLTPEQWKSHRSYSCQVTHEGSTVEKTVAPTECS | – | – | – | – | – | – | – | – | – | – | 122 | 0.00849 | 70200 | 81.1 | 0.0191 | 237000 | 5.39 | 0.00197 | 374000
6 | v34919 (bispecific antibody, human IgG1, lambda, L234A L235A, MSLN VL-VH scFv); also called anti-(MSLNxCD3) bispecific control) heavy 1: not shown heavy 2: EIVLTQSPATLSLSPGERVTMSCSASSSVSYMHWYQQKPGQAPRLWIYDTSKLASGVPARFSGSGSGTDYTLTISSVEPEDNAVYYCQQWSGHPLTFGQGTKVEIKGGGGSGGGGSGGGGSGGGGSQVQLVQSGAEVKKPGASVKISCKASGYSFTGYTMNWVRQAPGQGLEWIGLITPYSGASSYAQKFQGRATLTVDKSTSTAYMELSSLRSEDTAVYYCARGGYDGRGFDYWGQGTNVTVSSAAEPKSSDKTHTCPPCPAPEAAGGPSVFLFPPKPKDTLMISRTPEVTCVVVSVSHEDPEVKFNWYVDGVEVHNAKTKPREEQYNSTYRVVSVLTVLHQDWLNGKEYKCKVSNKALPAPIEKTISKAKGQPREPQVYVLPPSRDELTKNQVSLLCLVKGFYPSDIAVEWESNGQPENNYLTWPPVLDSDGSFFLYSKLTVDKSRWQQGNVFSCSVMHEALHNHYTQKSLSLSPG light: NFMLTQPHSVSESPGKTVTISCKRNTGNIGSNYVNWYQQHEGSSPTTIIYRNDKRPDGVSDRFSGSIDRSSKSASLTISNLKTEDEADYFCQSYSSGFIFGGGTKLTVLGQPKAAPSVTLFPPSSEELQANKATLVCLISDFYPGAVTVAWKADSSPVKAGVETTTPSKQSNNKYAASSYLSLTPEQWKSHRSYSCQVTHEGSTVEKTVAPTECS | – | – | – | – | – | – | – | – | – | – | – | – | – | 50.4 | 0.0131 | 267000 | 4.16 | 0.00181 | 458000
